{
  "source": "patent US20160326240A1",
  "binders": {"B1": {"name": "AE12-1 (antibody, V domains shown)", "VH": "EVQLVQSGAEVKKPGASVKVSCKASGYTFTSHGISWVRQAPGQGLDWMGWISPYSGNTNYAQKLQGRVTMTTDTSTSTAYMELSSLRSEDTAVYYCARVGSGPYYYMDVWGQGTLVTVSS", "VL": "QSALTQPRSVSGSPGQSVTISCTGTSSSVGDSIYVSWYQQHPGKAPKLMLYDVTKRPSGVPDRFSGSKSGNTASLTISGLQAEDEADYYCCSYAGTDTLFGGGTKVTVL"}, "B2": {"name": "AE12-1-F (antibody, V domains shown)", "VH": "EVQLVQSGAEVKKPGASVKVSCKASGYTFTSHGISWVRQAPGQGLDWMGWISPYSGNTNYAQKLQGRVTMTTDTSTSTAYMELSSLRSEDTAVYYCARVGSGPYYYMDVWGQGTLVTVSS", "VL": "QSALTQPRSVSGSPGQSVTISCTGTSSSVGDSIYVSWYQQHPGKAPKLMLYDVTKRPSGVPDRFSGSKSGNTASLTISGLQAEDEADYYCFSYAGTDTLFGGGTKVTVL"}, "B3": {"name": "AE12-1-K (antibody, V domains shown)", "VH": "EVQLVQSGAEVKKPGASVKVSCKASGYTFTSHGISWVRQAPGQGLDWMGWISPYSGNTNYAQKLQGRVTMTTDTSTSTAYMELSSLRSEDTAVYYCARVGSGPYYYMDVWGQGTLVTVSS", "VL": "QSALTQPRSVSGSPGQSVTISCTGTSSSVGDSIYVSWYQQHPGKAPKLMLYDVTKRPSGVPDRFSGSKSGNTASLTISGLQAEDEADYYCKSYAGTDTLFGGGTKVTVL"}, "B4": {"name": "AE12-1-I (antibody, V domains shown)", "VH": "EVQLVQSGAEVKKPGASVKVSCKASGYTFTSHGISWVRQAPGQGLDWMGWISPYSGNTNYAQKLQGRVTMTTDTSTSTAYMELSSLRSEDTAVYYCARVGSGPYYYMDVWGQGTLVTVSS", "VL": "QSALTQPRSVSGSPGQSVTISCTGTSSSVGDSIYVSWYQQHPGKAPKLMLYDVTKRPSGVPDRFSGSKSGNTASLTISGLQAEDEADYYCISYAGTDTLFGGGTKVTVL"}, "B5": {"name": "AE12-1-V (antibody, V domains shown)", "VH": "EVQLVQSGAEVKKPGASVKVSCKASGYTFTSHGISWVRQAPGQGLDWMGWISPYSGNTNYAQKLQGRVTMTTDTSTSTAYMELSSLRSEDTAVYYCARVGSGPYYYMDVWGQGTLVTVSS", "VL": "QSALTQPRSVSGSPGQSVTISCTGTSSSVGDSIYVSWYQQHPGKAPKLMLYDVTKRPSGVPDRFSGSKSGNTASLTISGLQAEDEADYYCVSYAGTDTLFGGGTKVTVL"}, "B6": {"name": "AE12-1-L (antibody, V domains shown)", "VH": "EVQLVQSGAEVKKPGASVKVSCKASGYTFTSHGISWVRQAPGQGLDWMGWISPYSGNTNYAQKLQGRVTMTTDTSTSTAYMELSSLRSEDTAVYYCARVGSGPYYYMDVWGQGTLVTVSS", "VL": "QSALTQPRSVSGSPGQSVTISCTGTSSSVGDSIYVSWYQQHPGKAPKLMLYDVTKRPSGVPDRFSGSKSGNTASLTISGLQAEDEADYYCLSYAGTDTLFGGGTKVTVL"}, "B7": {"name": "AE12-1-Y (antibody, V domains shown)", "VH": "EVQLVQSGAEVKKPGASVKVSCKASGYTFTSHGISWVRQAPGQGLDWMGWISPYSGNTNYAQKLQGRVTMTTDTSTSTAYMELSSLRSEDTAVYYCARVGSGPYYYMDVWGQGTLVTVSS", "VL": "QSALTQPRSVSGSPGQSVTISCTGTSSSVGDSIYVSWYQQHPGKAPKLMLYDVTKRPSGVPDRFSGSKSGNTASLTISGLQAEDEADYYCYSYAGTDTLFGGGTKVTVL"}, "B8": {"name": "AE12-1-H (antibody, V domains shown)", "VH": "EVQLVQSGAEVKKPGASVKVSCKASGYTFTSHGISWVRQAPGQGLDWMGWISPYSGNTNYAQKLQGRVTMTTDTSTSTAYMELSSLRSEDTAVYYCARVGSGPYYYMDVWGQGTLVTVSS", "VL": "QSALTQPRSVSGSPGQSVTISCTGTSSSVGDSIYVSWYQQHPGKAPKLMLYDVTKRPSGVPDRFSGSKSGNTASLTISGLQAEDEADYYCHSYAGTDTLFGGGTKVTVL"}},
  "molecular_target": "T1, Rat RGMa-His (rat) (UniProt D4A188)",
  "T1 sequence": "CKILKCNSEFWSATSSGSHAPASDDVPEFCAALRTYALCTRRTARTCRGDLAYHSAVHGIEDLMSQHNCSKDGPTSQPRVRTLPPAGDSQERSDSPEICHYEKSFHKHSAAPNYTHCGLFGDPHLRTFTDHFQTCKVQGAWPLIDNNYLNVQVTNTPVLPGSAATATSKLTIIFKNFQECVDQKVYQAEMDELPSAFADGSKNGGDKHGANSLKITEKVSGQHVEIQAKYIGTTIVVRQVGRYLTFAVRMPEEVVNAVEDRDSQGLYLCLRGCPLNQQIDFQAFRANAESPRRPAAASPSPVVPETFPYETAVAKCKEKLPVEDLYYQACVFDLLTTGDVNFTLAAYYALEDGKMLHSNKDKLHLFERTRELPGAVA",
  "assay": "BIAcore",
  "data": [
    {"binder": "B1", "values": [
      {"measurement": "Kd", "result": 19, "unit": "nM"},
      {"measurement": "koff", "result": 0.00048, "unit": "s⁻¹"},
      {"measurement": "kon", "result": 26000, "unit": "M⁻¹ s⁻¹"}
    ]},
    {"binder": "B2", "values": [
      {"measurement": "Kd", "result": 5.2, "unit": "nM"},
      {"measurement": "koff", "result": 0.00014, "unit": "s⁻¹"},
      {"measurement": "kon", "result": 26000, "unit": "M⁻¹ s⁻¹"}
    ]},
    {"binder": "B3", "values": [
      {"measurement": "Kd", "result": 17, "unit": "nM"},
      {"measurement": "koff", "result": 0.00028, "unit": "s⁻¹"},
      {"measurement": "kon", "result": 16000, "unit": "M⁻¹ s⁻¹"}
    ]},
    {"binder": "B4", "values": [
      {"measurement": "Kd", "result": 12, "unit": "nM"},
      {"measurement": "koff", "result": 0.00032, "unit": "s⁻¹"},
      {"measurement": "kon", "result": 28000, "unit": "M⁻¹ s⁻¹"}
    ]},
    {"binder": "B5", "values": [
      {"measurement": "Kd", "result": 15, "unit": "nM"},
      {"measurement": "koff", "result": 0.00032, "unit": "s⁻¹"},
      {"measurement": "kon", "result": 220000, "unit": "M⁻¹ s⁻¹"}
    ]},
    {"binder": "B6", "values": [
      {"measurement": "Kd", "result": 12, "unit": "nM"},
      {"measurement": "koff", "result": 0.00039, "unit": "s⁻¹"},
      {"measurement": "kon", "result": 32000, "unit": "M⁻¹ s⁻¹"}
    ]},
    {"binder": "B7", "values": [
      {"measurement": "Kd", "result": 5, "unit": "nM"},
      {"measurement": "koff", "result": "6.9e-05", "unit": "s⁻¹"},
      {"measurement": "kon", "result": 14000, "unit": "M⁻¹ s⁻¹"}
    ]},
    {"binder": "B8", "values": [
      {"measurement": "Kd", "result": 8.6, "unit": "nM"},
      {"measurement": "koff", "result": 0.00025, "unit": "s⁻¹"},
      {"measurement": "kon", "result": 29000, "unit": "M⁻¹ s⁻¹"}
    ]}
  ]
}
